Laboratory results reported in patent publication US20200055958A1.

Biological target: VEGF-A (human) (UniProt P15692)
Experiment: cell-based or functional assay

Chain of VEGF-A (human) (P15692 other isoform, or with tags, fused parts or gaps limits assumed): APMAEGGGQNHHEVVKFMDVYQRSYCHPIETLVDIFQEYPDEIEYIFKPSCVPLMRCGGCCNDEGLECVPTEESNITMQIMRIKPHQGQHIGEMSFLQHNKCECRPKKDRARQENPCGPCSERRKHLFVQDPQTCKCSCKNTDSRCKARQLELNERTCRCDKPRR

IC50, VEGF-dependent HUVEC cell growth assay (MTS): 190 pM
Substance: positive control, VEGFR1 ECD D2 and VEGFR2 ECD D3 fused C-terminally with IgG1 Fc fragment (Fc fusion)
